Results reported in PMC9260137 (Molecules and Cells, 2022).

Legend:
purified protein [1] = substrate: CC[C@H](C)[C@H](N)C(=O)O; test: purified protein; details: oxidative deamination, co-substrate NAD+, 37 °C
purified protein [2] = substrate: NC(=O)c1ccc[n+]([C@@H]2O[C@H](COP(=O)(O)OP(=O)(O)OC[C@H]3O[C@@H](n4cnc5c(N)ncnc54)[C@H](O)[C@@H]3O)[C@@H](O)[C@H]2O)c1; test: purified protein; details: 37 °C, amino acid co-substrate not given, varied: cofactor
purified protein [3] = substrate: CC(C)[C@H](N)C(=O)O; test: purified protein; details: oxidative deamination, co-substrate NAD+, 37 °C
purified protein [4] = substrate: CC(C)C[C@H](N)C(=O)O; test: purified protein; details: oxidative deamination, co-substrate NAD+, 37 °C
SEC-MALS = target: the molecule itself; test: SEC-MALS

B1: Leucine dehydrogenase from Pseudomonas aeruginosa (enzyme)
chain: MFDMMDAARLEGLHLAQDPATGLKAIIAIHSTRLGPALGGCRYLPYPNDEAAIGDAIRLAQGMSYKAALAGLEQGGGKAVIIRPPHLDNRGALFEAFGRFIESLGGRYITAVDSGTSSADMDCIAQQTRHVTSTTQAGDPSPHTALGVFAGIRASAQARLGSDDLEGLRVAVQGLGHVGYALAEQLAAVGAELLVCDLDPGRVQLAVEQLGAHPLAPEALLSTPCDILAPCGLGGVLTSQSVSQLRCAAVAGAANNQLERPEVADELEARGILYAPDYVINSGGLIYVALKHRGADPHSITAHLARIPARLTEIYAHAQADHQSPARIADRLAERILYGPQ
With B1 as the protein, how does the Km (purified protein [1]) read?
Its Km is 400 ± 100 µM.

And the Vmax (purified protein [1])?
Its Vmax is 7870 µM/min/mg.

What about the kcat (purified protein [1]) of the same protein?
The kcat was 1.8 ± 0.1 s⁻¹.

What about the kcat/Km (purified protein [1]) of the same protein?
The kcat/Km was 5800 ± 400 M⁻¹ s⁻¹.

What about the Km (purified protein [2]) of the same protein?
Its Km is 200 ± 100 µM.

And the Vmax (purified protein [2])?
Its Vmax is 23200 µM/min/mg.

What about the Km (purified protein [3]) of the same protein?
The Km was 500 ± 100 µM.

And the Vmax (purified protein [3])?
The Vmax was 35000 µM/min/mg.

What about the kcat (purified protein [3]) of the same protein?
The kcat was 9.6 ± 0.8 s⁻¹.

What about the kcat/Km (purified protein [3]) of the same protein?
The kcat/Km was 14400 ± 900 M⁻¹ s⁻¹.

What about the Km (purified protein [4]) of the same protein?
Its Km is 1100 ± 100 µM.

What about the Vmax (purified protein [4]) of the same protein?
The Vmax was 21100 µM/min/mg.

What about the kcat (purified protein [4]) of the same protein?
The kcat was 5.2 ± 0.5 s⁻¹.

What about the kcat/Km (purified protein [4]) of the same protein?
The kcat/Km was 4300 ± 700 M⁻¹ s⁻¹.

What about the “stoichiometry N” value (SEC-MALS) of the same protein?
Its value is 2.
